# T1: chimeric LIF receptor (human LIF receptor and human gp130 / mouse G-CSF receptor) in Ba/F3 cell line LIG (Homo sapiens, UniProt P40189+P42702)
# T1 construct: from the 1st to the 833rd amino acid residues; expressed in transfected cells; host or cells: mouse Ba/F3 cells co-transfected with pCV-cLIFR and pCV-cgp130, clone LIG#47 = LIG
# T1 sequence (P42702 45-833): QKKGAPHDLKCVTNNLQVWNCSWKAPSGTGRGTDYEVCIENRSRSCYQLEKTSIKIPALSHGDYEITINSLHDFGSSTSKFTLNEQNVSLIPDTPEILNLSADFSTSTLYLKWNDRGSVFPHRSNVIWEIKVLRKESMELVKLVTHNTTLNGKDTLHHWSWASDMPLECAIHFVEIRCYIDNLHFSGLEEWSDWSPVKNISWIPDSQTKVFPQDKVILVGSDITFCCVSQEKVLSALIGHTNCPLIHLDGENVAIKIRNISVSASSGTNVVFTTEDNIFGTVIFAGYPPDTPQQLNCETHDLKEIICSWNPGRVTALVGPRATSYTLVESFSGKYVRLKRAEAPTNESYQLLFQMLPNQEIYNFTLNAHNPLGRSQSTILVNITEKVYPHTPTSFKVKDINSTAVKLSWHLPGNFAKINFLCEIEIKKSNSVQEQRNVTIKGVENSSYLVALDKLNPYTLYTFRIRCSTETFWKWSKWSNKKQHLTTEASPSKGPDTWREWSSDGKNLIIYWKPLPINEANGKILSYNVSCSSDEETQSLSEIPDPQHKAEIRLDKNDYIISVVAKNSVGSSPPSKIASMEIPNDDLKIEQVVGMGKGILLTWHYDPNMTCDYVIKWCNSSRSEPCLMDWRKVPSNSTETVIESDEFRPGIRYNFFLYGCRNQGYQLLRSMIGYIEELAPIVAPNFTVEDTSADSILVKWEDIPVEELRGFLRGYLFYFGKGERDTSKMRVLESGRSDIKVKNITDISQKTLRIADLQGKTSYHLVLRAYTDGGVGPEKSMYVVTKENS
# T1 sequence (P40189 23-619): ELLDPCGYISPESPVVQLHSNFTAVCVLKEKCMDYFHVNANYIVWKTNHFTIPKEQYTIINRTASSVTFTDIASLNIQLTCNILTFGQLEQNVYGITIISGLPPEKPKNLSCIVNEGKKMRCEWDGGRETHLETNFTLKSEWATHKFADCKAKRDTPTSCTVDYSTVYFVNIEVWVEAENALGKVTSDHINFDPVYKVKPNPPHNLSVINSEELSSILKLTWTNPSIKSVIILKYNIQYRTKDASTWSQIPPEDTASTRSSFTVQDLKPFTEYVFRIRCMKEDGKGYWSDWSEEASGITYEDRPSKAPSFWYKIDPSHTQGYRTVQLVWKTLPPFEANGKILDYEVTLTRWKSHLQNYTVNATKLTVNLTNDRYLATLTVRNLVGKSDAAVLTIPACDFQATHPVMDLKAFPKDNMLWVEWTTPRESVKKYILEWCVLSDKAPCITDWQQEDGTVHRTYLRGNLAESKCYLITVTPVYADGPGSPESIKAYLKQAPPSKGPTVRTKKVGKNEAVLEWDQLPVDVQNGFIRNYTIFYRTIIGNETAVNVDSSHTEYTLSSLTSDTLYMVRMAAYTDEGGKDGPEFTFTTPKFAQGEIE
# T1 sequence (P40223 627-837 partner limits assumed): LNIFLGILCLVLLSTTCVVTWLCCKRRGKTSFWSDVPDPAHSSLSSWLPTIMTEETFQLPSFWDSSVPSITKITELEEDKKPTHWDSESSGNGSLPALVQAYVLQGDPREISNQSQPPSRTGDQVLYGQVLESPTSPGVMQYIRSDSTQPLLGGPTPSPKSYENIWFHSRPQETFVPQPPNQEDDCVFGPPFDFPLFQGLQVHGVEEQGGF
# B1: human CNTF: human ciliary neurotrophic factor (Genzyme) (protein, UniProt P26441 1-200, looked up)
# Ciliary neurotrophic factor: MAFTEHSPLTPHRRDLCSRSIWLARKIRSDLTALTESYVKHQGLNKNINLDSADGMPVASTDQWSELTEAERLQENLQAYRTFHVLLARLLEDQQVHFTPTEGDFHQAIHTLLLQVAAFAYQIEELMILLEYKIPRNEADGMPINVGDGGLFEKKLWGLKVLQELSQWTVRSIHDLRFISSHQTGIPARGSHYIANNKKM
# Biological target: T1, chimeric LIF receptor (human LIF receptor and human gp130 / mouse G-CSF receptor) in Ba/F3 cell line LIG
# Assay: Growth response of chimeric LIF receptor-expressing Ba/F3 cell line LIG (WST-8)
# Type: cell-based
# Conditions: 72 hours culture, WST-8 absorbance
# Description: Chimeric receptor DNAs were constructed by linking cDNA fragments encoding human LIF receptor (from the 1st to the 833rd amino acid residues; Gearing, D P. et al. […] EMBO J., 10, 2839-2848) and human gp130 (from the 1st to the 619th amino acid residues; Hibi, M. et al. (1990) Cell, 63, 1149-1157) with the transmembrane and intracellular domains (from the 602nd to the 813th amino acid residues; Fukunaga, R. et al. (1990) Cell 61, 341-350) of mouse G-CSF receptor, respectively. These constructs were inserted downstream of the HEF1α promoter of the mammalian expression vector pCV to construct chimeric receptors expression vectors, pCV-cLIFR and pCV-cgp130, respectively. pCV-cLIFR and pCV-cgp130 were linearized with Pvu I (Takara Shuzo), respectively, extracted with phenol and chloroform, and purified by ethanol precipitation. […]
# The cells were washed twice with Media A, and were suspended in Media A to give a cell density of 5×10^4 cells/mL. […] After the culture, 10 μL/well WST-8 reagent (Cell Count Reagent SF; Nacalai Tesque) was added, and pre-reaction absorbance at a measurement wavelength of 450 nm and a control wavelength of 655 nm was measured using microplate reader (Model 3550, Bio Rad). The plate was incubated for two hours in a CO2 incubator (CO2 concentration, 5%), and post-reaction absorbance was measured as above. […]
molecule,measurement,value
B1,concentration at which an evident growth reaction was observed,> 10 ng/mL

# From patent publication US7732133B2, “Screening methods for biologically active ligands” (Chugai Seiyaku Kabushiki Kaisha, priority 2000, dated 2010)
